Data: the DeepSol protein solubility set

assay: soluble on expression in E. coli; label from the status in PepcDB or PDB records

Sequence | soluble on expression in E. coli
MDTIAFAYMGGKEYEWLFFEVYDRVRRFYRDVRLPINIVYAGKIILPPGTLIRVETASGFVNMYSFEAVVEALYGKLVEMRDDVNDDSITKIFGITTFPIGSRDRYFDIYKKYLGIQVNVGDYHVLALSIKPFFTENKYLFIERVFKGVLHEIGHLYGLSHCHEDCVMNPPKDIKDWDLRTPTYCNTCLRKLKNKEELMPKLQLLEHHHHHH | soluble
MDTLQNMRAFSSVAQAGSFTAAAAVLDTTTANVSRAVSNLEAHLQTRLLNRTTRRIALTEAGKRYLLRCEQILASVEEAEAEASDAHARPAGQLKVHSMPGVGQHYVIDAIARYRRNHPDVAFDLTMTHRVPDLLEEGFDVSIVLASELADSGFVSQRLGITYSIVCASPEYVKTFGMAHKPADLLNHACLRLVSPVFPLDKWLFDGPEGQEMVTINSSPLLVNSADAMKTAISSGMGIGILPIYSAIEGLRNGTLVRVLSDYRSQELNLYAIYPSRQYLDAKIRTWVEYLRGSLPEILAADEADLHVQALKASC | not soluble
MDTQKLIEVLAREVLKEIAKRENQKLSENNEIISKKSVVTAFLGNDEVLKDELKKEASFMENIKLDSTWEEIGQCENKKRLVVSTLGINELIELSQGRKSVITEFLFNDGEVVLVEEGLEYKKYTKPAALINLYDGYLDKVREFGIKVVKRTEVKNVFCTKEKVYLKGLVTERRLRKLKLKNQTLEVDAKSKITSLAMDYIKENSIELCYERRQ | not soluble
MDTSKIVGEKIKALREDKSISIEELAQRSGLAIEQIERIENNIDIPSLAPLIKIARVLGVRLGTFLDDQDEIGPVVCRKKEAKDAISFSNNAIHSRKHMEYHSLSKSKADRHMEPFIIDVMPTEDSDFVLSSHEGEEFIMVMEGVMEISYGKNTYLLEEGDSIYYDSIVPHHVHAYEGQAAKILAVVYTPI | not soluble
MDVSYYDGPKDEVAEAMLKSAVTAMRLGQYEDGKGRLEEIMEFGTSNFQLLGTIYMYYGRVCRHLNHDAKALEFFEHELNMFKLIFNYPEACDSTRRIVEQALKMGKFPKARRFAEDLIDYTSNKKNGEKYIGQARILFASVCLEGCERDVESNQDEKKKLLSICAEQIAAVKLFNENNTEGAVSETKIMLLEAKCLSLDEKYEESRRKYQECIDFAIKTDQFEAVHIAYYDKALYAETDLLFFIIRDLRSALFYATKFGKERDVVKYKSKLSEEMLRNGEFHEAYLYGLEALVSIRKLGLNEYIGDVLLTIAKCLIALGKRRQAAYFIILGSVLTINQNSFKLFYEQIDVAMNQERSETATDQDVCLAIDSSPDPTSSNDMINKFVVELEHATNVETWEMIVNGIIDDQKKPVAIEKKENEEPVDMMDLIFSMSSRMDDQRTELPAARFIPPRPVSSASKKTTKSHRILPGLRANWTKVQSMKFDGHTMNRILKRSKKSKSSLDSTNSMQGDDTRSDDVTMTSK | not soluble
MDWHCVSPDGCERSEELQRIDRAYSTDYEWEFASTVDDSFEEYAMRILTDSLGSGCAWLYDLTLLGYNLQRSRQCYTVAGFELELSIPNEDPATFSEWVVVGRDIDVLGEE | not soluble
MDYCCVGRNNNDSVPREVTLLRVKTLMKMANHPRPGDIIQESLDELNVSLREFARAMEIAPSTASRLLTGKAALTPEMAIKLSVVIGSSPQMWLNLQNAWSLAEAEKTVVVSRLRRLVTQ | not soluble
MEAASIAVPGAGASLRAQALDALMTPAWADKLAAVAAIDAGAPVGAQQDLAEPAGLLGRPPAPQLVPPSQVRQRSVQSPEGRAALLHALAHIEFNAINLALDAVWRYGGLPDAYYLDWLKVAREEAYHFDLLNRHLSGLGHAYGDFPAHNGLWEMAEKTRADLLARLALVPRTLEARGLDASPLIRDKLAAAGDADGAAILEIILRDEIGHVAIGNHWYKALCAQRGLDPVAQYAQLASRYGAPRLRGPFNLEARRAAGFDEDELRALLQALEHHHHHH | not soluble
MEAHGSARLSRKRKRDGSNGEPEEGEKPLKFKRCTVGLKYPAPYADQLESMEDKQYQRVTIEEARRGTPPDRPVRVYADGIFDMFHSGHARALMQAKCLFPNTHLIVGVCSDDLTHKLKGFTVMNEDERYDAVSHCRYVDEVVRNAPWTLTPEFLTKHRIDFVAHDDIPYSSADSDDVYKHIKDAGMFAPTQRTEGISTSDIITRIVRDYDVYVRRNLQRGYTAKELNVSFINEKKYNLQERVDKVKKKVKDVEEKSKEFVQKVEEKSIDLIQKWEEKSREFIGNFLQMFGPEGALKHMLKEGKGRMLQAISPRQSPSSSPTRERSPSPTFRLPFFNKTSTPSSPSSHHSSALSGYTYAARGQAISEDEEDDED | soluble
MEALNKKLFRLNSKEKIQKSTGTFVPDLPNGSFLKENGSMELLNDYFFKNKDIYISKHNRFADYPYHTHQFLELNYMYSGSSEQVIEGNKETLHEGELLLLDSACHHSIKATGEKDILINILFRDQQISLEWLTSIKKKNSLLFDFLLHSSVSEQSLKKYIIFQSAQIPHIQQFLNQIITEYFLEEEFSSRIITLYLPILFTELVRKCDTYLADDLTSAQSSTTSTMLEVIKLIESNYRTITLTSAADTLGYNKNYLSNFIKKNTNFTFTELVNKQKMLAANLLIETTSTPIELIIEKVGFSNKTYFYSLYKKTFNLLPNEVRNKK | not soluble
MEALRSAPRAAHFLPMELQSSGERSPPREGAPVGTGATAGETPSAAPSGTPLWIPPRLATLDEVTLCHNIHRYRCFIEEGTALLPPLKTDVYCNGKTSSIATRLSVGAVVDAARRALSGSPAFAFCLVRPPGHHASADTPSGFCLVNNVAIAAMQLLQDWHVKYDCGVGGSRSVPSEERDIPERPRIAIVDIDVHHGEGTQSFVEVEPQLLYLSLHRYDRGSFYPCDPAGATSYVGQHRNICNVAVDTAATDPARCEEVISDMLFARVVDDVFLPRLEQFHPNIILLSLGFDAAHGDPLGRMAVEGGFAYVVRALKRFCLQSQGTIGLVAVLEGGYSPEGVSRGVVSVAHALCYPFDDVAVVNYARLRTPKTWMELRSRLSRRMEVRTDETGGATSLSSGLSSQGLGDATSTERAIAD | not soluble
MEATNKMKVEVWSDIMCPFCYIGKRNYEAGLKQFADSNNIEIIWKSFQLDPNIPQDTAVTENVYQYLAERKGMSYEQSVQMHDSVVATAKKAGLDYNFDKAVIANSFNAHRMIQLAKTKDLGDAAEERLFYAYFTEGKNVGNSYVLIELGKDIGLTEAEVQTALTDDTYAYKVRQDVEEAQHLGVRGVPFFVFDRKYAVSGAQPPQAFLETLEKSFSEWRKEHPASPFEVSEGPSCSVDGCD | not soluble
MEDYLVKALCYKGSIRAYAISATETVSEAQRRHDTWSSSTAALGRTLIGALLLGATLKGDDKLTVKVQGNGPAGAIIVDSNGRGETKGYIKNPHVSLKLNATGKIDVRGAVGNEGIFTVIKDLGLKETFSGQTPIVSGEIGEDFTYFMAVSEQVPSAIGLGVLVDTDESVKAAGGFMIQVMPGADESTIDFIEQRLAEVPPISQLLENGETPEQVLYRLLGEDEVEILEKMPVQFKCDCSKEKFATALIAVGIDELNAMIDEDHGAEAVCQFCNNKYHYSEEELIELRDEAIRNTKQK | not soluble
MEEAKNMALLFFMDHLMQKNGRRTIHDLSCQFGARGFSEEMRNAVGTTQEGLTEFLQGHPSLFTVEGDQVILNGHNDLNAKNNPLLQSGIRSRNYEKEAVDFFVTKLTKFGPELQIKSLLGHRSQAAPEVRLVSGRHLKEFCEFLQSQVDYFVVEGDRVRLKNMPEPDENAIEMDDEGRPLAGVKAKQAAVEYLKSVLEQNEDQPIPLDQFYQNFCQRFSHTIRQDVATNPKELLQFLKLNRGLFFIRSNKVSLVKNRLNEDGSENGSDEGEETNNNGMFPLDQSALTRIHFVKALKPAQDLISRLWQDINNMEKKVVGLDLKTVTVGVDGEIFLSLGVIATTSQIGIFDLASSDVIILESGFKGILESEKVVKVIHDARRVASLLAHKYAVHMRNVFDTQVAHSLLQHEKFNKSLNEMRPISFINLQRVYYPQSIMLSDVTPRKMSMCPNWGVRPITEEFQLTIVEEAHCLLSALYQSLSNLIPVHLRGVFEDKCIEVNHPEVLLASPNRPPPQPFISSPYRASTRRDVRNGGSIMQSFSPAPYAAAPRPQMSDACTQTFSTGDIEVLNVFYE | not soluble
MEEHPRAWIISVGNELLIGRTINTNAAWLGSRLTLLGFEVERVVTVPDRVEDIAEEVGRALGRARVVITTGGLGPTYDDVTLQGVAMALGRGLKLHPGALEMVRRFYSKRGLGLTEDRVKMAMLPDGAEPLENPVGAAPGAVVEARGSLVASLPGVPSEMEAMFEKALRPLLEEIAPPGAVVECGIAVVGVPESSLAPYIKEASRVSPRVYVKSHPQGSEIGKPLVRVRVLARASTLEEARAEALKALEKVRRGVEELGGSISEEDSC | soluble
MEEHYYVSIDIGSSSVKTIVGEKFHNGINVIGTGQTYTSGIKNGLIDDFDIARQAIKDTIKKASIASGVDIKEVFLKLPIIGTEVYDESNEIDFYEDTEINGSHIEKVLEGIREKNDVQETEVINVFPIRFIVDKENEVSDPKELIARHSLKVEAGVIAIQKSILINMIKCVEACGVDVLDVYSDAYNYGSILTATEKELGACVIDIGEDVTQVAFYERGELVDADSIEMAGRDITDDIAQGLNTSYETAEKVKHQYGHAFYDSASDQDIFTVEQVDSDETVQYTQKDLSDFIEARVEEIFFEVFDVLQDLGLTKVNGGFIVTGGSANLLGVKELLSDMVSEKVRIHTPSQMGIRKPEFSSAISTISSSIAFDELLDYVTINYHDNEETEEDVIDVKDKDNESKLGGFDWFKRKTNKKDTHENEVESTDEEIYQSEDNHQEHKQNHEHVQDKDKDKEESKFKKLMKSLFE | not soluble
MEEKKALRNRIKKLLRSQPEQQRKEGSQRVADILFSLPEWNEAHAIGITISLPHEVQTELIISRGWEEGKQIAVPRVKKGTTQMTFYEIHSFSVLEDTFFGLREPKPSECRQIDGQELDLLLVPGVAFDQKGNRLGYGGGYYDRFLHSYKGKTIALAYSQQLVESVPTDERDERVQMIVTERGVYRLEHHHHHH | soluble
MEETKRLQKVYQLFAESTTERIPTDRLVDVLRFAGYIISESYIGELLSSIPGETLDFGQLVDVCERIREREITREELQNSFRRLDVDNTSYIDAGRLVQILSSGENRFSDEEIEELLNILNPDGDGKICYDLVIKNIFGY | not soluble
MEFAKMCFEKLYGVDTSEAKEMYNSVYDVMKAMLKEYTVIFKGPNTQSSQSNPPSSTAARDIFACELAEDSNVEFERMDRSYKEMVNEIRVTDPKDELDIYLKAEVENPKTLPGMEWDVLSWWRLNSQKYPVLSEIARDVLAMQVSYVASESAFSTSGRLLEPSRSCLTHYMVETLVCLEQWLKSEIKLSENTFLTNTQLLADIELLDKLEKGNFIYVVY | soluble
MEFGRNPLSMTSTKPTLLNVLDDVGEAALHAIPKVDDITSHKIYVIAVQPVSFSDIESQAVKQDASSPNNCCCSCMHGVLRFFAELCCNCCAGCVQGICQG | not soluble
MEGDGSDPEPPDAGEDSKSENGENAPIYCICRKPDINCFMIGCDNCNEWFHGDCIRITEKMAKAIREWYCRECREKDPKLEIRYRHKKSRERDGNERDSSEPRDEGGGRKRPVPDPDLQRRAGSGTGVGAMLARGSASPHKSSPQPLVATPSQHHQQQQQQIKRSARMCGECEACRRTEDCGHCDFCRDMKKFGGPNKIRQKCRLRQCQLRARESYKYFPSSLSPVTPSESLPRPRRPLPTQQQPQPSQKLGRIREDEGAVASSTVKEPPEATATPEPLSDEDLPLDPDLYQDFCAGAFDDHGLPWMSDTEESPFLDPALRKRAVKVKHVKRREKKSEKKVMERKEERYKRHRQKQKHKDKWKHPERADAKDPASLPQCLGPGCVRPAQPSSKYCSDDCGMKLAANRIYEILPQRIQQWQQSPCIAEEHGKKLLERIRREQQSARTRLQEMERRFHELEAIILRAKQQAVREDEESNEGDSDDTDLQIFCVSCGHPINPRVALRHMERCYAKYESQTSFGSMYPTRIEGATRLFCDVYNPQSKTYCKRLQVLCPEHSRDPKVPADEVCGCPLVRDVFELTGDFCRLPKRQCNRHYCWEKLRRAEVDLERVRVWYKLDELFEQERNVRTAMTNRAGLLALMLHQTIQHDPLTTDLRSSADR | soluble
